T1: mouse IL-2Rβ (mouse) (UniProt P16297)
T1 sequence (looked up): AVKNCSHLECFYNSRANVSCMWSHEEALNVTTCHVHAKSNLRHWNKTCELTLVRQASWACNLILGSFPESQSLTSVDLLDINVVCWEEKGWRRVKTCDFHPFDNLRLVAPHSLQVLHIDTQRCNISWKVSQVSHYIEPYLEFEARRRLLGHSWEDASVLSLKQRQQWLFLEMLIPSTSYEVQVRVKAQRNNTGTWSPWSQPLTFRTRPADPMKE


target: T1, mouse IL-2Rβ (mouse); test: P.E. ELISA, coated protein

| Binder | P.E. binding ELISA OD |
| --- | --- |
| FJ1427 P035MP06E05 (VHH) VHH: QVQLVESGGELVQGGASLRLSCAASGRTFSNANMAWFRQAPEKEREFVALITWSSGSTLYADSVKGRFTISRDNARKMVYLQMNSLKPEDTAVYYCAADGPPYSGTYYRYDTYDYWGQGTQVTVSS | 0.046 OD450 nm |
| FJ1427 P035MP02C03 (VHH) VHH: EVQLVESGGGLVQTGGSLRLSCAASGSQFINDVMGWYRQVPGKQRELVADMDDTGSTEYADSVKGRFTILRDSVKNTAYLQMSNLKPEDTGVYYCKAGLWIKGRHFDYWGQGTQVTVSS | 0.047 OD450 nm |
| FJ1427_P035MP02B01 (VHH) VHH: QVQLVESGGGLVQTGGSLRLSCAASGSQFINDVMGWYRQVPGKQRELVADMDDTGSTKYADSVKGRFTILRDSVKNTAYLQMSNLKPEDTGVYYCKAGLWIKGRHFDYWGQGTQVTVSS | 0.048 OD450 nm |
| FJ1427 P035MP03A12 (VHH) VHH: EVQLVESGGGLVQAGGSLRLSCAASGRTFSINAMGWFRQAPGKEREFVAAISRSGGSTVYVDGVKGRFTISRDNAKNTVYLQMNSLEPEDTAVYYCAATMAVGWTTRWRTADFDSWGQGTQVTVSS | 0.05 OD450 nm |
| FJ1427 P035MP02D10 (VHH) VHH: EVQLVESGGGLVQAGGSLRLSCAASGRTFSSDAKAWFRQAPGKEREFVAAITWAGRGTDYADSVKDRFTITRDNAKNMVYLQMSSLKPEDTAVYYCALNPTGVIGPGFRNSNRYDYWGQGTQVTVAS | 0.047 OD450 nm |
| FJ1427 P035MP02G08 (VHH) VHH: QVQLVESGGGLVQAGGSLRLSCTVSGDVFVRYTMAWFRQAPGKEREFVASVTDSGRTTEYVHSVRGRFTVSRDNAKNTVYLQMNNLKPEDTAVYYCAANTDYFRIRSLDANTWGQGTQVTVSS | 0.055 OD450 nm |
| FJ1427 P035MP02D09 (VHH) VHH: QVQLVESGGGLVQAGGSLRLACALSGDVFVRYTMAWFRQAPGKEREFVASVTDSGRTTDYVASVQGRFTVSRDNNKNTVYLQMNSLKPEDTAVYYCAANTDYFQIRSLDRNTWGQGTQVTVSS | 0.056 OD450 nm |
| FJ1427 P035MP02H10 (VHH) VHH: EVQLVESGGGLVQAGGSLRLSCAASGDVFVRYTMAWFRQAPGKEREFVASVTDSGRTTDYVDSVKGRFTVSRDNAKNTVYLQMNNLKPEDTAVYYCAANTDYFQIKSLDRNTWGQGTQVTVSS | 0.051 OD450 nm |
| FJ1427 P035MP02E11 (VHH) VHH: QVQLQESGGGLVQAGGSLRLSCAASGRTFSNYVMAWFRQAPGKEREFVGAITQTGRGTFYADSVEGRFTISRINDKNTVYLQMNSLKPEDTAVYYCSAPRSGRAGTRNQMDYEYWGQGTQVTVSS | 0.048 OD450 nm |
| FJ1427 P035MP02H09 (VHH) VHH: QLQLVESGGGLVQPGGSLRLSCAAAGRAIENYPVGWFRRAPGKEREFVAAITWISGSTLYADSVKGRFTISRDNAKNTVYLQMSSLKPEDTALYYCAAALKTITRGQNDYSYWGQGTQVTVSS | 0.049 OD450 nm |
| FJ1427_P035MP02B08 (VHH) VHH: EVQLVESGGGLVQAGGSLRLSCAASGRAIENYPVGWFRQAPGKEREFVAAITWISGSTLYADSVKGRFTISRDNAKNTVYLQMSSLKPEDTALYYCAAALKTITRGQNDYSYWGQGTQVTVSS | 0.048 OD450 nm |
| FJ1427 P035MP02A10 (VHH) VHH: QLQLVESGGGLVQTGTSLRLSCAASGHTSRINAMGWFRQFPGKEREFVAAISRNGGSTVYVDSVKGRFTISRDNAKSTVYLQMNSLKPEDTAVYYCTATDAVGWTTRWMTADFGFWGQGTQVTVSS | 0.047 OD450 nm |
| FJ1427_P035MP02A11 (VHH) VHH: EVQLVESGGGLVQAGGSLRLSCAASGRTFSTTEMGWFRQAPGKEREFVAAITWTGRGTMYAESVEGRFTISRENAKNMVYLQMNSLKPEDTAIYYCAAARRGRAAVRSEGGYDFWGQGTQATVSS | 0.047 OD450 nm |
| FJ1427 P035MP02E06 (VHH) VHH: QVQLVESGGGSVQPGGSLRLSCAASGFTFSNYAMSWVRQAPGKGLEWVASITGFGRGTDYADSVKGRFTISRDNAEDTLYLQMNSLKPEDTAVYYCAKYSSSTYYPPTPARGRDYRGQGTQVTVSS | 0.048 OD450 nm |
| FJ1427 P035MP02C01 (VHH) VHH: QVQLVESGGGLVQPGGSLGLSCAASGFTFDNYAMSWVRQAPGKGLEWVSSITGAGRGTHYADSVKGRFTISRDNAKNTLYLQMNSLKPEDTAVYYCAKYSSSTYYPPTPARGTDYRGPGTQVTVSS | 0.047 OD450 nm |
| FJ1427_P035MP02A01 (VHH) VHH: QVQLVESGGGLVQTGGSLRLSCVVSGSHFISDVMGWYRQVPGKQRELVADMADGGSAKYGDSVKGRFTILRDSVKNTVYLQMSSLNPEDTGVYYCKAGLWITGRHSDYWGQGTQVTVSS | 0.048 OD450 nm |
| FJ1427 P035MP02D11 (VHH) VHH: QVQLQESGGGLVQAGDSLRISCAASGRIFSNYAMGWFRQAPGKETEFVAGITHLTSTTHYADSVKGRFTISRDNAKNTMHLQMNNLKPEDTALYYCAADRNIKITADWSYWGQGTQVTVAS | 0.047 OD450 nm |

More lines, now with the values ahead:

| P.E. binding ELISA OD | Binder |
| --- | --- |
| 0.047 OD450 nm | FJ1427_P035MP02B10 (VHH) VHH: QVQLVESGGGLVEAGGSLRLSCAASGRAFNNFPMGWFRQAPGKEREFVAAITWISGSTLYADSVKGRFTISRDKSKNTVYLQMSGLKPEDTALYYCAAALKTITRGQHDYTYWGQGTQVTVSS |
| 0.048 OD450 nm | FJ1427_P035MP03F12 (VHH) VHH: EVQLVESGGGLVQAGGSLRLSCAASGSIFSINAMAWFRQVPGMERELVAAISRDGGASVYRDSVKGRFTISRDNSKNTVYLQMNTLKPEDTAIYVCAATRAIGWTARWITTDFDFWGQGTQVTVSS |
| 0.048 OD450 nm | FJ1427_P035MP03F10 (VHH) VHH: EVQLVESGGGLVQAGGSLRLSCAASGRDFSSYAMGWFRQAPGKEREFVVAITWTKRSTDFPDSVKGRFTISRDNAKNTVYLDMNSLKPEDTAVYYCASARGLPVTPLGDIIYWGEGTLVTVSS |
| 0.05 OD450 nm | FJ1427_P035MP02C10 (VHH) VHH: QVQLVESGGGLVQAGGSLRLACALSGDVFVRYTMAWFRQAPGKEREFVASVTDSGRTTDYVASVQGRFTVSRDNNKNTVYLQMNSLKPEDTAVYYCAANTDYFQIRSLDRNTWGQGTQVTVSS |
| 0.051 OD450 nm | FJ1427_P035MP02F10 (VHH) VHH: EVQLVESGGGLVQAGGSLRLSCVVSGDVFVRYTMAWFRQAPGKEREFVAVVTDSGRTTEYVDSVKGRFTVSRDNAKNTVYLQMNNLKPEDTAVYYCAANTDYFQIRSVDNNAWGQGTQVTVSS |
| 0.066 OD450 nm | FJ1427_P035MP02G09 (VHH) VHH: QVQLVESGGGLVQAGGSLRLSCTVSGDVFVRYTMAWFRQAPGKEREFVALVTDSGRTTEYVDSVKGRFTVSRDNAKNTVYLQMNNLKPEDTAVYYCAANTDYFRIRSLDANTWGQGTQVTVSS |
| 0.051 OD450 nm | FJ1427_P035MP02F09 (VHH) VHH: EVQLVESGGGLVQAGGSLRLSCAASGDVFVRYTMAWFRQAPGKEREFVASVTDSGRTTDYVDSVKGRFTVSRDNAKNTVYLQMNNLKPEDTAVYYCAANTDYFQIRSLEFNTWGQGTQVTVSS |
| 0.048 OD450 nm | FJ1427_P035MP03C03 (VHH) VHH: QVQLVESGGGLVQPGGSLRLSCAISGGTLDSYGIGWVRQAPGKQREGVSCMSRSDDRTYYADSVKGRFTISKDSAKNTVYLQMTSLKPEDTAVYYCAAVDAYGCSLVQPTTYDFWGLGTQVTVSS |
| 0.047 OD450 nm | FJ1427_P035MP02E10 (VHH) VHH: QVQLVESGGGLVQAGGSLRLSCAAAGRAIENYPVGWFRRAPGKEREFVAAITWISGSTLYADSVKGRFTISRDNAKNTVYLQMSSLKPEDTALYYCAAALKTITRGQNDYSYWGQGTQVTVSS |
| 0.047 OD450 nm | FJ1427_P035MP02C09 (VHH) VHH: QVQLQESGGGLVQAGGSLRLSCVASGSVSSINGMAWYRQGADNQRVLVAAISRVGNTAYGDSVKGRFTISRQNARNTVYLQMNSLKPEDTAVYYCNADSWGGDDYWGQGTQVTVSS |
| 0.047 OD450 nm | FJ1427_P035MP06F05 (VHH) VHH: QVQLVESGGGLVQTGDSLRLSCAASGRSLDTTYIAWFRQAPGKERDFLAYISPRFSHTWYADSVKGRFTISRNIAKRTVDLEMNSLEPEDTAVYYCAAREHSGSTAWEHYDHWGQGTQVTVSS |
| 0.047 OD450 nm | FJ1427_P035MP02B09 (VHH) VHH: EVQLVESGGGLVQAGGSLRLSCAASGRTFSTTEMGWFRQAPGKEREFVAAITWTGRGTMYAESVEGRFTISRENAKNMVYLQMNSLKPEDTAIYYCAAARRGRAAVRSEGGYDFWGQGTQVTVSS |
| 0.048 OD450 nm | FJ1427_P035MP02G10 (VHH) VHH: QVQLVESGGGLVQAGGSLRLSCAASGRTFSTTEMGWFRQAPGKEREFVAAITWTGRGTMYAESVEGRFTISRENAKNMVYLQMNSLKPEDTAIYYCAAARRGRAAVRSEGGYDFWGQGTQVTVSS |
| 0.049 OD450 nm | FJ1427_P035MP03F08 (VHH) VHH: EVQLVESGGGLVQTGGSLRLSCAASGGTFSRDAMAWFRQVPGKEREFVALISWSGATTNYADSVKGRFAISRDNGKNTVYLQMNRLKPADTAIYYCAADRRPMGSRSYFEPTEYDDWGQGTQVTVSS |
| 0.049 OD450 nm | FJ1427_P035MP02H08 (VHH) VHH: EVQLVESGGGLVQAGDSLRISCAASGRIFSNYAMGWFRQAPGKETEFVAGITHLTSTTHYADSVKGRFTISRDNAKNTMHLQMNNLKPEDTALYYCAADRNIKITADWSYWGQGTQVTVAS |

Source: patent US20240409645A1
